{"source": "patent US20240272170A1", "about": "(QUANTUM SI, published 2024)", "binders": {"B1": {"name": "PS1223 (designed binder)", "single polypeptide, two PS961 units in tandem": "MPTAASATESAIEDTPAPARPEVDGRTKPKRQPRYHVVLWDDDDHTYQYVVVMLRSLFGHPPSRGYRMAKEMDTQGRVIVLTTTREHAELKRDQIHAFGRDRLLARSKGSMKASIEAEEGSAGSAAGSGEFGSAGSAAGSGEFGSAGSAAGSGEFMPTAASATESAIEDTPAPARPEVDGRTKPKRQPRYHVVLWDDDDHTYQYVVVMLRSLFGHPPSRGYRMAKEMDTQGRVIVLTTTREHAELKRDQIHAFGRDRLLARSKGSMKASIEAEE", "notes": "dye-labelled recognizer for N-terminal L, I, V in the six-recognizer runs; also called PS1223 (LIV)"}}, "key": {"[1]": {"target": "T1, QP1165 after cleavage to N-terminal isoleucine (IAFLKQRVWK)", "T1 peptide": "IAFLKQRVWK", "experiment": "on-chip dynamic sequencing of QP1165, PS2121 run, trace Aperture=740473"}, "[2]": {"target": "T2, QP1165 after cleavage to N-terminal leucine (LKQRVWK)", "T2 peptide": "LKQRVWK", "experiment": "on-chip dynamic sequencing of QP1165, PS2121 run, trace Aperture=740473"}, "[3]": {"target": "T1, QP1165 after cleavage to N-terminal …", "experiment": "on-chip dynamic sequencing of QP1165, PS2123 run, trace Aperture=501326"}, "[4]": {"target": "T2, QP1165 after cleavage to N-terminal …", "experiment": "on-chip dynamic sequencing of QP1165, PS2123 run, trace Aperture=501326"}, "[5]": {"target": "T1, QP1165 after cleavage to N-terminal …", "experiment": "on-chip dynamic sequencing of QP1165, 500 nM PS1875 plus five recognizers, 11565 alignments", "experimental": "(§1) The semiconductor chip was placed in the sequencing device and a chip check was performed to test electronic circuit function and to optimize laser coupling alignment. The chip was then removed from the device socket and the chip was washed twice with 50 μL of 70% isopropanol, followed by four washes with 30 μL of wash buffer (50 mM MOPS pH 8.0, 60 mM potassium acetate, 50 mM glucose, 20 mM magnesium acetate, and surfactant mix) through a flow cell attached to the chip. A second chip check was then performed. The laser was then blocked via an integrated software-controlled shutter, peptide complex was added to a final concentration of 1-10 nM and mixed thoroughly, and the chip was incubated for 15 min. The chip was then washed six times with wash buffer, followed by addition of an imaging solution (wash buffer with 5 mM Trolox and an oxygen scavenging system). The laser was unblocked and the occupancy percentage (target 10-30%, Poisson distributed) was recorded by acquiring a photobleaching signal from a fluorophore attached to the peptide complex during 5 min of laser illumination. […] Data was recorded for 15 min. The laser was then blocked briefly and aminopeptidases were added to the sequencing reaction via the flow cell and mixed thoroughly (final concentration 2-8 μM PhTET2 and/or 20-80 μM PhTET3, as indicated according to the experiment). The laser was then unblocked, and data was recorded for 10 hours. For all runs, 30 μL of mineral oil was added to fluid reservoirs at each port of the flow cell to prevent evaporation during the run."}, "[6]": {"target": "T2, QP1165 after cleavage to N-terminal …", "experiment": "on-chip dynamic sequencing of QP1165, 500 nM PS1875 plus five recognizers, 11565 alignments", "experimental": "as §1"}, "[7]": {"target": "T1, QP1165 after cleavage to N-terminal …", "experiment": "on-chip dynamic sequencing of QP1165, PS2123 run, trace Aperture=1168773"}, "[8]": {"target": "T2, QP1165 after cleavage to N-terminal …", "experiment": "on-chip dynamic sequencing of QP1165, PS2123 run, trace Aperture=1168773"}, "[9]": {"target": "T1, QP1165 after cleavage to N-terminal …", "experiment": "on-chip dynamic sequencing of QP1165, PS2132 run, trace Aperture=376215"}, "[10]": {"target": "T1, QP1165 after cleavage to N-terminal …", "experiment": "on-chip dynamic sequencing of QP1165, 500 nM PS1875 plus five recognizers, 3369 alignments"}, "[11]": {"target": "T2, QP1165 after cleavage to N-terminal …", "experiment": "on-chip dynamic sequencing of QP1165, 500 nM PS1875 plus five recognizers, 3369 alignments"}, "[12]": {"target": "T1, QP1165 after cleavage to N-terminal …", "experiment": "on-chip dynamic sequencing of QP1165, 500 nM PS1875 plus five recognizers, 7305 alignments"}, "[13]": {"target": "T2, QP1165 after cleavage to N-terminal …", "experiment": "on-chip dynamic sequencing of QP1165, 500 nM PS1875 plus five recognizers, 7305 alignments"}, "[14]": {"target": "T1, QP1165 after cleavage to N-terminal …", "experiment": "on-chip dynamic sequencing of QP1165, 500 nM PS2132 plus five recognizers, 36192 alignments"}, "[15]": {"target": "T2, QP1165 after cleavage to N-terminal …", "experiment": "on-chip dynamic sequencing of QP1165, 500 nM PS2132 plus five recognizers, 36192 alignments"}, "[16]": {"target": "T1, QP1165 after cleavage to N-terminal …", "experiment": "on-chip dynamic sequencing of QP1165, PS2121 run, trace Aperture=1683362"}, "[17]": {"target": "T2, QP1165 after cleavage to N-terminal …", "experiment": "on-chip dynamic sequencing of QP1165, PS2121 run, trace Aperture=1683362"}, "[18]": {"target": "T1, QP1165 after cleavage to N-terminal …", "experiment": "on-chip dynamic sequencing of QP1165, PS1875 run, trace Aperture=1311609"}, "[19]": {"target": "T1, QP1165 after cleavage to N-terminal …", "experiment": "on-chip dynamic sequencing of QP1165, PS1875 run, trace Aperture=295010"}, "[20]": {"target": "T2, QP1165 after cleavage to N-terminal …", "experiment": "on-chip dynamic sequencing of QP1165, PS1875 run, trace Aperture=295010"}, "[21]": {"target": "T2, QP1165 after cleavage to N-terminal …", "experiment": "on-chip dynamic sequencing of QP1165, PS2132 run, trace Aperture=1826247"}}}
{"binder": "B1", "values": [{"measurement": "PD of a recognition segment in an example trace", "setting": "[1]", "value": 0.5, "unit": "s"}, {"measurement": "PD of a recognition segment in an example trace", "setting": "[2]", "value": 0.49, "unit": "s"}, {"measurement": "PD of a recognition segment in an example trace", "setting": "[3]", "value": 0.51, "unit": "s"}, {"measurement": "PD of a recognition segment in an example trace", "setting": "[4]", "value": 0.39, "unit": "s"}, {"measurement": "IPD (interpulse duration)", "setting": "[5]", "value": 8.79, "unit": "s"}, {"measurement": "PD (pulse duration)", "setting": "[5]", "value": 1.01, "unit": "s"}, {"measurement": "IPD (interpulse duration)", "setting": "[6]", "value": 17.1, "unit": "s"}, {"measurement": "PD (pulse duration)", "setting": "[6]", "value": 0.59, "unit": "s"}, {"measurement": "PD of a recognition segment in an example trace", "setting": "[7]", "value": 0.53, "unit": "s"}, {"measurement": "PD of a recognition segment in an example trace", "setting": "[8]", "value": 0.39, "unit": "s"}, {"measurement": "PD of a recognition segment in an example trace", "setting": "[9]", "value": 0.49, "unit": "s"}, {"measurement": "IPD (interpulse duration)", "setting": "[10]", "value": 7.33, "unit": "s"}, {"measurement": "PD (pulse duration)", "setting": "[10]", "value": 1.18, "unit": "s"}, {"measurement": "IPD (interpulse duration)", "setting": "[11]", "value": 15.3, "unit": "s"}, {"measurement": "PD (pulse duration)", "setting": "[11]", "value": 0.66, "unit": "s"}, {"measurement": "IPD (interpulse duration)", "setting": "[12]", "value": 8.02, "unit": "s"}, {"measurement": "PD (pulse duration)", "setting": "[12]", "value": 1.15, "unit": "s"}, {"measurement": "IPD (interpulse duration)", "setting": "[13]", "value": 15.4, "unit": "s"}, {"measurement": "PD (pulse duration)", "setting": "[13]", "value": 0.65, "unit": "s"}, {"measurement": "IPD (interpulse duration)", "setting": "[14]", "value": 9.74, "unit": "s"}, {"measurement": "PD (pulse duration)", "setting": "[14]", "value": 0.66, "unit": "s"}, {"measurement": "IPD (interpulse duration)", "setting": "[15]", "value": 17.4, "unit": "s"}, {"measurement": "PD (pulse duration)", "setting": "[15]", "value": 0.54, "unit": "s"}, {"measurement": "PD of a recognition segment in an example trace", "setting": "[16]", "value": 0.52, "unit": "s"}, {"measurement": "PD of a recognition segment in an example trace", "setting": "[17]", "value": 0.28, "unit": "s"}, {"measurement": "PD of a recognition segment in an example trace", "setting": "[18]", "value": 0.61, "unit": "s"}, {"measurement": "PD of a recognition segment in an example trace", "setting": "[19]", "value": 0.48, "unit": "s"}, {"measurement": "PD of a recognition segment in an example trace", "setting": "[20]", "value": 3.19, "unit": "s"}, {"measurement": "PD of a recognition segment in an example trace", "setting": "[21]", "value": 0.52, "unit": "s"}]}
